Assays:
human MTHFR [1] = target: T1, human MTHFR (Homo sapiens, UniProt P42898, A222V); experiment: Cell-free MTHFR enzyme activity assay in crude yeast extract; type: biochemical; design: expressed in transfected cells; conditions: cells grown at 50 ug/ml folinic acid
human MTHFR [2] = target: T1, human MTHFR; experiment: In vivo yeast complementation growth assay: MTHFR alleles in fol3 met13 haploid yeast, growth without methionine with titrated folinic acid; type: cell-based; design: expressed in transfected cells; host or cells: Saccharomyces cerevisiae fol3Δ::KanMX met13Δ::KanMX (S288c background), GAL1 promoter; conditions: 50 p g/ml folate supplementation

A222V: common functionally impaired human MTHFR variant, catalytic domain substitution A222V
Drop in enzyme activity in cell-free assays (human MTHFR [1]): 50%
Reduction in growth rate (human MTHFR [2]): 50%
